Conditions in all cases: both partners purified
Experiment [1] has as its target T1, ubiquitin-PA (untagged, wild type) (human, UniProt P0CG47 1-75, C-terminal propargylamine (PA) warhead).
T1 construct: ubiquitin, human, residues 1-75 of the 76-residue ubiquitin; also called Ub-PA; wild-type ubiquitin-PA
Kind of experiment: activity-based probe labelling (covalent conjugate), SDS-PAGE; purified protease 2.5 µM and probe 10 µM, 1 h at 37 °C; 20 mM Tris pH 8.0, 300 mM NaCl, 2 mM DTT, 5% glycerol; SDS-PAGE and Coomassie staining.

Experiment [2] addresses T2, Fubi-PA (untagged, wild type) (human, UniProt P62861 1-73, C-terminal propargylamine (PA) warhead).
T2 construct: Fubi, human, residues 1-73 of the 74-residue Fubi; also called wild-type Fubi-PA; Fubi-based probe
Kind of experiment: intact protein LC-MS; covalent USP36~probe complexes analysed by intact protein mass spectrometry.

The target of experiment [3] is T1, ubiquitin-PA (untagged, wild type). The experiment is described as above.

These results are taken from article PMC10611586, “Molecular basis for ubiquitin/Fubi cross-reactivity in USP16 and USP36” (Nature Chemical Biology, 2023).

T2 sequence (P62861 1-73): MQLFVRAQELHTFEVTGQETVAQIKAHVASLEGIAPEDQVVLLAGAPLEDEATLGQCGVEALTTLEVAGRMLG

B1: USP36^81–424 (catalytic domain, shorter construct) (enzyme, human, UniProt Q9P275 81-424, looked up)
chain: ARRQGSEHTYESCGDGVPAPQKVLFPTERLSLRWERVFRVGAGLHNLGNTCFLNATIQCLTYTPPLANYLLSKEHARSCHQGSFCMLCVMQNHIVQAFANSGNAIKPVSFIRDLKKIARHFRFGNQEDAHEFLRYTIDAMQKACLNGCAKLDRQTQATTLVHQIFGGYLRSRVKCSVCKSVSDTYDPYLDVALEIRQAANIVRALELFVKADVLSGENAYMCAKCKKKVPASKRFTIHRTSNVLTLSLKRFANFSGGKITKDVGYPEFLNIRPYMSQNNGDPVMYGLYAVLVHSGYSCHAGHYYCYVKASNGQWYQMNDSLVHSSNVKVVLNQQAYVLFYLRIP
notes: USP36, human, catalytic domain, residues 81-424; also called shorter USP36^81–424 construct; source: E. coli Rosetta2(DE3)pLacI, purified (HisTrap, 3C cleavage, cation exchange)
Regarding B1, the binding result in experiment [1] is given as “binds”.

B2: USP16^191–823 (catalytic domain) (enzyme, human, UniProt Q9Y5T5 191-823, looked up)
chain: CQITVKGLSNLGNTCFFNAVMQNLSQTPVLRELLKEVKMSGTIVKIEPPDLALTEPLEINLEPPGPLTLAMSQFLNEMQETKKGVVTPKELFSQVCKKAVRFKGYQQQDSQELLRYLLDGMRAEEHQRVSKGILKAFGNSTEKLDEELKNKVKDYEKKKSMPSFVDRIFGGELTSMIMCDQCRTVSLVHESFLDLSLPVLDDQSGKKSVNDKNLKKTVEDEDQDSEEEKDNDSYIKERSDIPSGTSKHLQKKAKKQAKKQAKNQRRQQKIQGKVLHLNDICTIDHPEDSEYEAEMSLQGEVNIKSNHISQEGVMHKEYCVNQKDLNGQAKMIESVTDNQKSTEEVDMKNINMDNDLEVLTSSPTRNLNGAYLTEGSNGEVDISNGFKNLNLNAALHPDEINIEILNDSHTPGTKVYEVVNEDPETAFCTLANREVFNTDECSIQHCLYQFTRNEKLRDANKLLCEVCTRRQCNGPKANIKGERKHVYTNAKKQMLISLAPPVLTLHLKRFQQAGFNLRKVNKHIKFPEILDLAPFCTLKCKNVAEENTRVLYSLYGVVEHSGTMRSGHYTAYAKARTANSHLSNLVLHGDIPQDFEMESKGQWFHISDTHVQAVPTTKVLNSQAYLLFYERIL
notes: USP16, human, catalytic domain, residues 191-823; also called recombinant USP16; source: E. coli Rosetta2(DE3)pLacI, purified (HisTrap, 3C cleavage, reverse Ni-NTA, anion exchange, SEC)
For the molecule B2, the binding result in experiment [1] is recorded as “binds”.

B3: USP2^258–605 (catalytic domain) (enzyme, human, UniProt O75604 258-605, looked up)
chain: MNSKSAQGLAGLRNLGNTCFMNSILQCLSNTRELRDYCLQRLYMRDLHHGSNAHTALVEEFAKLIQTIWTSSPNDVVSPSEFKTQIQRYAPRFVGYNQQDAQEFLRFLLDGLHNEVNRVTLRPKSNPENLDHLPDDEKGRQMWRKYLEREDSRIGDLFVGQLKSSLTCTDCGYCSTVFDPFWDLSLPIAKRGYPEVTLMDCMRLFTKEDVLDGDEKPTCCRCRGRKRCIKKFSIQRFPKILVLHLKRFSESRIRTSKLTTFVNFPLRDLDLREFASENTNHAVYNLYAVSNHSGTTMGGHYTAYCRSPGTGEWHTFNDSSVTPMSSSQVRTSDAYLLFYELASPPSRM
notes: USP2, human, catalytic domain, residues 258-605; also called recombinant USP2; source: E. coli Rosetta2(DE3)pLacI, purified (HisTrap, 3C cleavage, SEC)
B3: the binding result in experiment [1] is “binds”.

B4: USP36^81–461 (catalytic domain, longer construct) (enzyme, human, UniProt Q9P275 81-461, looked up)
chain: ARRQGSEHTYESCGDGVPAPQKVLFPTERLSLRWERVFRVGAGLHNLGNTCFLNATIQCLTYTPPLANYLLSKEHARSCHQGSFCMLCVMQNHIVQAFANSGNAIKPVSFIRDLKKIARHFRFGNQEDAHEFLRYTIDAMQKACLNGCAKLDRQTQATTLVHQIFGGYLRSRVKCSVCKSVSDTYDPYLDVALEIRQAANIVRALELFVKADVLSGENAYMCAKCKKKVPASKRFTIHRTSNVLTLSLKRFANFSGGKITKDVGYPEFLNIRPYMSQNNGDPVMYGLYAVLVHSGYSCHAGHYYCYVKASNGQWYQMNDSLVHSSNVKVVLNQQAYVLFYLRIPGSKKSPEGLISRTGSSSLPGRPSVIPDHSKKNIGNGI
notes: also called recombinant USP36; source: E. coli Rosetta2(DE3)pLacI, purified (HisTrap, 3C cleavage, cation exchange)
Consider B4, for which the “stoichiometry N” value in experiment [2] and in experiment [3] was 1 each time.

B5: USP42^70–446 (catalytic domain) (enzyme, human, UniProt Q9H9J4 70-446, looked up)
chain: DKSKPSPQKDQALGDGIAPPQKVLFPSEKICLKWQQTHRVGAGLQNLGNTCFANAALQCLTYTPPLANYMLSHEHSKTCHAEGFCMMCTMQAHITQALSNPGDVIKPMFVINEMRRIARHFRFGNQEDAHEFLQYTVDAMQKACLNGSNKLDRHTQATTLVCQIFGGYLRSRVKCLNCKGVSDTFDPYLDITLEIKAAQSVNKALEQFVKPEQLDGENSYKCSKCKKMVPASKRFTIHRSSNVLTLSLKRFANFTGGKIAKDVKYPEYLDIRPYMSQPNGEPIVYVLYAVLVHTGFNCHAGHYFCYIKASNGLWYQMNDSIVSTSDIRSVLSQQAYVLFYIRSHDVKNGGELTHPTHSPGQSSPRPVISQRVVTNKQ
notes: USP42, human, catalytic domain, residues 70-446; also called recombinant USP42; source: E. coli Rosetta2(DE3)pLacI, purified (HisTrap, 3C cleavage, reverse Ni-NTA, cation exchange)
For the molecule B5, the binding result in experiment [1] is listed as “binds”.

For orientation: stoichiometry N means the number of molecules, sites or subunits per partner or assembly.
